Substitutions are numbered along the chain they refer to.

By EC50 is commonly meant the concentration needed to bring the measured effect to its halfway point.

Assay [1] concerns the target T1, CD73 on cynomolgus macaques CD3+CD8+ T cells (cynomolgus macaques, UniProt A0A2K5V5U7 27-549).
T1 construct: whole, on cells; also called cynomolgus macaques T cells; cynomolgus macaques PBMC
T1 sequence: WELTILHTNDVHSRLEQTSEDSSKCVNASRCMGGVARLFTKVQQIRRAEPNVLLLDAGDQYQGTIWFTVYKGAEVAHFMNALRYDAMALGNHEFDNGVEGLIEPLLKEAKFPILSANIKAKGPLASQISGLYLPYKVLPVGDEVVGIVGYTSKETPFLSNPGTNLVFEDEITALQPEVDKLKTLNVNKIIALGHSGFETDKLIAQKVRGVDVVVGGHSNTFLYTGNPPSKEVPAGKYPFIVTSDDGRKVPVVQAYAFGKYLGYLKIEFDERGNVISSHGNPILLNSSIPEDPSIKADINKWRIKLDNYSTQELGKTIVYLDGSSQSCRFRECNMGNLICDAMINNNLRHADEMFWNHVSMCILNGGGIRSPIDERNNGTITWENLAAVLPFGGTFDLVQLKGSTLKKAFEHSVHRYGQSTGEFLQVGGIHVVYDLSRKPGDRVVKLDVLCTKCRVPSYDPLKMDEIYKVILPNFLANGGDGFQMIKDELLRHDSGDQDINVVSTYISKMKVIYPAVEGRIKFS
Kind of assay: flow cytometry on cynomolgus macaque PBMC, CD3+CD8+ T cells, donor 1132F. The protocol: (§1) Monkey blood samples from two donors (1132F and 1300M) were obtained from Medicilon. Peripheral blood mononuclear cells (PBMCs) were isolated using a Ficoll density gradient centrifugation system. The PBMCs were incubated with the antibody to be tested, then the antibodies bound on the cells were stained with fluorochrome-labeled secondary antibodies (DyLight488 goat anti-mouse IgG, Abcam Cat. No. ab97015; DyLight488 goat anti-human IgG, Abcam Cat. No. ab97003), and the fluorochrome-labeled antibodies against CD3+ and CD8+ were used to recognize T cells. Together with the unstained control samples and the fluorescence compensation control samples, all the samples were run on a flow cytometer to detect the binding of the antibodies to cynomolgus macaques T cells.

Assay [2] has as its target T1, CD73 on cynomolgus macaques CD3+CD8+ T …. Kind of assay: flow cytometry on cynomolgus macaque PBMC, CD3+CD8+ T cells, donor 1300M. On the procedure:
as §1

Assay [3] addresses T2, human CD73 on the cell surface (tumor cells endogenously expressing human CD73; CHOS-human CD73) (human, UniProt P21589 27-549).
T2 construct: The endogenous CD73 of the human tumor lines (MDA-MB-231, Calu6, SK-ME-S, H2030, SKLU1, BT549, A375, HCC44) is treated as the same protein
T2 sequence: T1 sequence with T199M, A350T, I466V
Nature of the assay: full-field cell scanning analyzer (Celigo), percent fluorescent cells, Calu6 cells endogenously expressing human CD73. The protocol:
(§2) Experimental method: 10,000 cells were plated on a flat-bottom 96-well plate with 100 μL DMEM+10% FBS/well, cultured overnight so that the cells adhered to the well, and the supernatant was discarded on the next day. Serial 3-fold dilutions of antibody for 8 points were performed by diluting ⅓ of the total volume (100 μL) in 200 μL DMEM. 100 μL of the diluted antibody was added to each well of the cell plate (the supernatants of fused clones or subclones were used for screening), 100 μL of DMEM was added to the corresponding negative control well, and incubation was performed at room temperature for 1 hour. After the supernatant was discarded, 100 μL of secondary antibody (DyLight488 goat anti-mouse IgG (Abcam, Cat. No. ab97015)) was added to each well at a concentration of 5 μg/mL (diluted in DMEM), and incubation was performed for 0.5 hours at room temperature. After staining, the supernatant was discarded, followed by washing once with PBS+2% FBS, then 100 μL of PBS+2% FBS was added to each well, and then reading was performed on analyzer. A full-field cell scanning analyzer (Nexcelom Company, model Celigo® Image Cytometer) was used to measure the reading of the experimental plate. […] The binding effect of the anti-CD73 antibody to the CD73-expressing cell line was determined according to the percentage. […]

Assay [4] has as its target T2, human CD73 on the cell surface (tumor …). Nature of the assay: full-field cell scanning analyzer (Celigo), percent fluorescent cells, CHOS cells recombinantly expressing human CD73. On the procedure:
as §2

For assay [5] the target is unchanged. Nature of the assay: full-field cell scanning analyzer (Celigo), percent fluorescent cells, SK-ME-S cells endogenously expressing human CD73. The protocol: as §2
Assay [6] shares this target. Nature of the assay: full-field cell scanning analyzer (Celigo), percent fluorescent cells, MDA-MB-231 cells endogenously expressing human CD73. The protocol:
as §2

B1: murine antibody 13D12 (antibody, V domains shown)
VH: DVKLQESGPAMVKPSQSLSLTCTVTGYSITSGYDWHWIRLFPGNKLEWMGYISYSGYTDYSPSLKSRISITHDTSKNHFFLKLHSVTTEDTATYYCTRGDHSYAMDYWGQGTSVTVS
VL: DIVMTQSHKFMSTSVGDRVSITCKASQAVGTAVAWYQQKPGQSPKLLIYWASSRHTGVPDRFTGSRSGTDFTLTISSVQSEDLADYFCQQYSSYPLTFGGGTNLEIK
notes: Mouse monoclonal antibody purified from hybridoma supernatant; also called mouse monoclonal antibody 13D12
With B1, the “MFI FC (fold change of mean fluorescence intensity)” value stood at 5 fold in assay [1] and 2.8 fold in assay [2]. For the same molecule, the EC50 was found to be 0.47 µg/mL in assay [3], 0.44 µg/mL in assay [4], 1.72 µg/mL in assay [5] and 0.9 µg/mL in assay [6].

The values are drawn from patent publication US20230312739A1 (BIOTHEUS, published 2023).
